Data reported in patent publication US20240108738A1 (Bicycle, published 2024).
Numbered stars: 1 amine (or outer) side, 2 acyl side, 3 side chain; on linkers, the order of the positions; unused ones are H or OH. Bridge positions count the residues as written; N and C are the ends. Square brackets hold non-standard residues; d marks the D form. Primed or numbered codes have the meaning given here. Ends that are not written are not given here. * marks the point of attachment. TBMT(3) = 2,4,6-tris(bromomethyl)-s-triazine scaffold, C(c1nc(C[*:2])nc(C[*:3])n1)[*:1]; TBMT = 2,4,6-tris(bromomethyl)-s-triazine, C(c1nc(C[*:2])nc(C[*:3])n1)[*:1]; TBMT″ = 2,4,6-tris(bromomethyl)-s-triazine, scaffold on three Cys; TATA = O=C(CC[*:1])N1CN(C(=O)CC[*:2])CN(C(=O)CC[*:3])C1; Biotin = O=C1N[C@H]2[C@H](CS[C@H]2CCCCC(=O)*)N1; hPhe = N[C@@H](CCc1ccccc1)C(=O)O; Pent4ynoyl = C#CCCC(=O)*; Sar = CNCC(=O)O

B1: BCY21694 (peptide)
peptide: Ac-CRWH[hPhe]SEPCGAWC-NH2
modifications: linker 1-9-13 via TBMT(3)
SMILES: CC(=O)N[C@H]1CSCc2nc3nc(n2)CSC[C@H](NC(=O)[C@@H]2CCCN2C(=O)[C@H](CCC(=O)O)NC(=O)[C@H](CO)NC(=O)[C@H](CCc2ccccc2)NC(=O)[C@H](Cc2c[nH]cn2)NC(=O)[C@H](Cc2c[nH]c4ccccc24)NC(=O)[C@H](CCCNC(=N)N)NC1=O)C(=O)NCC(=O)N[C@@H](C)C(=O)N[C@@H](Cc1c[nH]c2ccccc12)C(=O)N[C@H](C(N)=O)CSC3
notes: scaffold TBMT
B2: BCY15915 (peptide)
peptide: ACPPTVYCHPLDCAK-NH2
modifications: linker 2-8-13 via TATA (inferred); not fully specified (residue 15); also: homodimer via shared N-(amine-PEG2)-N-bis(PEG3-azide) linker
notes: homodimer of BCY15685; scaffold TATA; also called CD16a fluorescent dimer
B3: BCY15914 (peptide)
peptide: ACRWSVEDPCGAWCAK-NH2
modifications: linker 2-10-14 via TBMT (inferred); not fully specified (residue 16); also: homodimer via shared N-(amine-PEG2)-N-bis(PEG3-azide) linker
notes: homodimer of BCY13883; scaffold TBMT; also called CD16a fluorescent dimer
B4: BCY15916 (peptide)
peptide: ACVGLEELGPCSDLCAK-NH2
modifications: linker 2-11-15 via TBMT (inferred); not fully specified (residue 17); also: homodimer via shared N-(amine-PEG2)-N-bis(PEG3-azide) linker
notes: homodimer of BCY13886; scaffold TBMT; also called CD16a fluorescent dimer
B5: BCY12622 (peptide)
peptide: ACPPEVWCHPLDCA[Sar][Sar][Sar][Sar][Sar][Sar]K(Biotin)-NH2
modifications: linker 2-8-13 via TATA; N-terminus assumed
SMILES: CC(C)C[C@@H]1NC(=O)[C@@H]2CCCN2C(=O)[C@H](Cc2c[nH]cn2)NC(=O)[C@@H]2CSCCC(=O)N3CN(CN(C3)C(=O)CCSC[C@H](NC(=O)[C@H](C)N)C(=O)N3CCC[C@H]3C(=O)N3CCC[C@H]3C(=O)N[C@@H](CCC(=O)O)C(=O)N[C@@H](C(C)C)C(=O)N[C@@H](Cc3c[nH]c4ccccc34)C(=O)N2)C(=O)CCSC[C@@H](C(=O)N[C@@H](C)C(=O)N(C)CC(=O)N(C)CC(=O)N(C)CC(=O)N(C)CC(=O)N(C)CC(=O)N(C)CC(=O)N[C@@H](CCCCNC(=O)CCCC[C@@H]2SC[C@@H]3NC(=O)N[C@@H]32)C(N)=O)NC(=O)[C@H](CC(=O)O)NC1=O
notes: scaffold TATA

target: T1, CD16a/FCgRIIIa (F158 variant) on HEK293 cells, Terbium-labelled (UniProt P08637 17-254, limits assumed, Terbium donor dye); experiment: HTRF competition vs IgG-d2 on HEK293 cells
T1 construct: whole, on cells; also called cellular CD16a
T1 sequence (P08637 17-254 limits assumed, change not shown): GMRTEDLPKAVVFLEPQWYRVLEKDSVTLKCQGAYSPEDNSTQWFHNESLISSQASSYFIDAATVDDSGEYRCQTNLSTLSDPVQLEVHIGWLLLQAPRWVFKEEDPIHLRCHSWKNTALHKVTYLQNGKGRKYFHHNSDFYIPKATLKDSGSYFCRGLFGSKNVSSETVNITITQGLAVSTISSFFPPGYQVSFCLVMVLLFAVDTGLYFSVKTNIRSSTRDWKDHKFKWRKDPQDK
Method: Binding to cellular CD16a/FCgRIIIa (F158 variant) was determined through competition with IgG for binding to CD16a receptors expressed on HEK293 cells.
The experimental procedure followed the manufacturer's instructions detailed in the product information for the CD16 (FCγRIIIa) kit (Cisbio-6FR3APAG). […] Bicycle peptides were dispensed using Echo compound handler at a top concentration of 20 μM. The competing unlabeled antibodies and bicyclic peptides were added in a three-fold dilution series in Tag-lite buffer into PerkinElmer-ProxiPlate-384 Plus.
The HEK293 cell expressing Terbium-labelled CD16a were thawed and washed in PBS and added to the wells of PerkinElmer-ProxiPlate-384 Plus containing the competitor compounds. […] The data was plotted in Graph pad prism and IC50-values were determined to indicate unlabeled antibody or bicyclic peptide competition for cellular binding to the CD16a receptor.

Binder | IC50 [nM]
ACRWSVEDPCGAWCA-NH2 (linker 2-10-14 via TBMT; also: scaffold TATA, TATB or TBMT, scaffold TBMT) [BCY14950] | 2040
ACRWSVEDPC[dA]AWCA-NH2 (linker 2-10-14 via TBMT (inferred), scaffold TBMT) [BCY14956] | 1400
ACRWHXSEPCGAWCA (CiRWH[HyP]SEPCiiGAWCiii, scaffold TBMT) [BCY20383] | 1110
CRWH[hPhe]SEPCGAWC-NH2 (linker 1-9-13 via TBMT″, scaffold TBMT) [BCY21693] | 377
B1 | 166
ACRWHXSEPCGAWCA (CiRWH[4MePhe]SEPCiiGAWCiii, scaffold TBMT) [BCY20380] | 898
ACRWHXSEXCGAWCA (CiRWH[HPhe]SE[Aze]CiiGAWCiii, scaffold TBMT) [BCY21689] | 1240
ACRWSVEXPCGAWCA (CiRWSVE[Gla]PCiiGAWCiii, scaffold TBMT) [BCY16608] | 1800
ACRWHXSEPCGAWCA (CiRWH[Aze]SEPCiiGAWCiii, scaffold TBMT) [BCY20382] | 749
ACPPTVYCHPLDCAK (C-terminal Lys(PYA), scaffold TATA) [BCY15685] | 7560

target: T2, human CD16a V176 variant, biotinylated (human, UniProt P08637 17-208, N-terminally biotinylated in-house); experiment: AlphaScreen competition vs mouse IgG2a
T2 construct: supplier is told for the AlphaScreen assay only; also called V Variant; FcγRIIIA V variant
T2 sequence (P08637 other isoform, or with tags, fused parts or gaps mutant limits assumed): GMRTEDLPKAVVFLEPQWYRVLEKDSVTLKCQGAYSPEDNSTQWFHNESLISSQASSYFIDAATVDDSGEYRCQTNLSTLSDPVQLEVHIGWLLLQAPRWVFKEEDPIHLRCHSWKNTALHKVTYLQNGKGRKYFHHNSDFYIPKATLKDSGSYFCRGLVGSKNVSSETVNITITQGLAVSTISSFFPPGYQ
Method: (§1) Bicyclic peptides were evaluated with a CD16a-IgG competition assay using Perkin Elmer AlphaScreen™ technology. Acceptor beads (Perkin Elmer 6762003) were chemically conjugated via a reductive amination reaction with a mouse IgG2a mAb to link via the free amines, based the manufacturer's protocol. Briefly, beads were centrifuged and resuspended in a 130 mM sodium phosphate buffered solution pH 8.0 containing 0.2 mg mAb, 20 mM NaBH₃CN (Sigma 296945) and 0.06% P20 surfactant (Cytiva Life Sciences, BR-1000-54) and incubated on a rotary shaker at 44° C. for 22 hours. Unbound sites were then blocked by adding a final concentration of 3 mg/ml carboxymethoxylamine (CMO) (Sigma C13408), before continuing shaking incubation for a further 1 hour. Beads were washed by centrifugation and resuspension in 100 mM TRIS-HCl pH 8.0 (Sigma T2694), before a final resuspension in PBS (GIBCO 14190)+0.05% Proclin-300 (Sigma 48912-U), at 5 mg/ml and storage at 4° C. until use.
(§2) The assay was performed in white 384 well plates (PerkinElmer, 6007290) using assay buffer 25 mM HEPES (Sigma-Aldrich, H0887), 100 mM NaCl (Sigma-Aldrich, S5150), 0.5% BSA (Sigma-Aldrich, A3294), 0.05% P20 (Cytiva Life Sciences, BR-1000-54), pH7.4 for all dilutions. […] Mouse IgG2a-conjugated acceptor beads described above were added at a final concentration of 20 ug/ml and incubated at room temperature for 30 minutes under subdued lighting. Streptavidin coated donor beads (PerkinElmer, 6760002) were added a final concentration of 20 ug/ml and incubated at room temperature for 60 minutes under subdued lighting. […] Data was normalised to a high control containing all assay components except Bicyclic peptide and fit to a four-parameter non-linear regression in GraphPad Prism 8.0.2 to generate an IC50 value.

Binder | IC50 [nM]
B2 | 32.5
ACVGLEELGPCSDLCAK(Pent4ynoyl)-NH2 (linker 2-11-15 via TBMT (inferred), scaffold TBMT) [BCY13886] | 3190
B3 | 308
ACRWSVEDPCGAWCAK(Pent4ynoyl)-NH2 (linker 2-10-14 via TBMT (inferred), scaffold TBMT) [BCY13883] | 2540
ACPPTVYCHPLDCAK (C-terminal Lys(PYA), scaffold TATA) [BCY15685] | 3480
B4 | 113

target: T3, human CD16a F176 variant, biotinylated (human, UniProt P08637 17-208, C-terminally biotinylated); experiment: AlphaScreen competition vs mouse IgG2a
T3 construct: supplier is told for the AlphaScreen assay only; also called F Variant; FcγRIIIA F variant
T3 sequence (P08637 17-208 limits assumed, change not shown): as the sequence (P08637 other isoform, or with tags, fused parts or gaps mutant limits assumed) above, with V160F counted along it
Method: as §1, §2

Binder | IC50 [nM]
B2 | 27.8
ACVGLEELGPCSDLCAK(Pent4ynoyl)-NH2 (linker 2-11-15 via TBMT (inferred), scaffold TBMT) [BCY13886] | 1830
B3 | 51.1
ACPPTVYCHPLDCAK (C-terminal Lys(PYA), scaffold TATA) [BCY15685] | 11000
B4 | 52.6

target: T2, human CD16a V176 variant, biotinylated; experiment: SPR
Method: (§3) The SPR analysis was run at 25° C. at a flow rate of 50 μl/min with 60 seconds association and dissociation between 60 and 200 seconds. Data were corrected for DMSO excluded volume effects. All data were double-referenced for blank injections and reference surface using standard processing procedures and data processing and kinetic fitting were performed using Scrubber software, version 2.0c (BioLogic Software). Data were fitted using simple 1:1 binding model allowing for mass transport effects where appropriate.
(§4) For analysis of peptide binding, a Biacore 8k+ instrument was used with a CM5 chip (Cytiva). All experiments were carried out at 25° C. Streptavidin was immobilized on all flow cells by standard amine coupling chemistry. The running buffer was HBS-N(Cytiva, 10 mM HEPES, 0.15 M NaCl, pH 7.4) and the flow rate was 10 μl/min. The carboxymethyl dextran surface was activated with a 1:1 ratio of 0.4 M 1-ethyl-3-(3-dimethylaminopropyl) carbodiimide hydrochloride (EDC)/0.1 M N-hydroxy succinimide (NHS) (Cytiva) for 420s. Streptavidin (ProSpec, cat no. PRO-791) was diluted to 0.2 mg/ml in 10 mM sodium acetate pH 4.5 and was injected onto the chip surface for 600 s. Residual activated groups were blocked with a 420 s injection of 1 M ethanolamine (pH 8.5). The final surface density was 2000-3000 RU. Biotinylated CD16a was diluted to 5 μg/ml in HBS-N and was captured on flow cell 2 only of the streptavidin chip at a flow rate of 10 μl/min to 1500-2500 RU. The buffer was then changed to PBS-P+(Cytiva) supplemented with 0.5-2% DMSO. […] The flow rate was 30 μl/min with 100 s association and 400 s dissociation. Data were corrected for DMSO volume exclusion effects. All data were double-referenced against blank injections and reference surface response using standard processing procedures. Data processing and kinetic fitting was performed using Biacore Insight Evaluation Software with Extended Screening and Characterization Extension (Cytiva). Data were fitted using steady state affinity 1:1 binding model to determine KD. Data were fitted using kinetic 1:1 binding model to determine kinetic constants where appropriate.

Binder | Kd [nM]
ACRWSVEDPC[dA]AWCA-NH2 (linker 2-10-14 via TBMT (inferred), scaffold TBMT) [BCY14956] | 2150
ACVGXEELGPCSDLCA (CiVG[tBuAla]EELGPCiiSDLCiii, scaffold TBMT) [BCY16501] | 3220
B5 | 4000
ACRWHFXEPCGAWCA (CiRWHF[HSer]EPCiiGAWCiii, scaffold TBMT) [BCY20388] | 1080
ACVGLEELGPCSDLCAK(Pent4ynoyl)-NH2 (linker 2-11-15 via TBMT (inferred), scaffold TBMT) [BCY13886] | 4280
ACVGLLELGPCSDLCAK(Pent4ynoyl)-NH2 (linker 2-11-15 via TBMT (inferred), scaffold TBMT) [BCY16165] | 3230
ACRWXFSEPCGAWCA (CiRW[4FPhe]FSEPCiiGAWCiii, scaffold TBMT) [BCY20379] | 1430
ACRWHXSEPCGAWCA (CiRWH[HyP]SEPCiiGAWCiii, scaffold TBMT) [BCY20383] | 202
ACVGLXELGPCSDLCA (CiVGL[Nle]ELGPCiiSDLCiii, scaffold TBMT) [BCY16511] | 5000
ACRWSVEDPCGAWCAK(Pent4ynoyl)-NH2 (linker 2-10-14 via TBMT (inferred), scaffold TBMT) [BCY13883] | 1520
ACRWYFSEXCAAWCA (CiRWYFSE[Aze]Cii[dA]AWCiii, scaffold TBMT) [BCY20394] | 1000
ACPPTVYCHPLDCAK (C-terminal Lys(PYA), scaffold TATA) [BCY15685] | 1850
ACRWHFSEPC[dA]AWCA-NH2 (linker 2-10-14 via TBMT″ (inferred), scaffold TBMT) [BCY20392] | 385

target: T3, human CD16a F176 variant, biotinylated; experiment: SPR
Method: as §3, §4

Binder | Kd [nM]
ACRWSVEDPC[dA]AWCA-NH2 (linker 2-10-14 via TBMT (inferred), scaffold TBMT) [BCY14956] | 2660
B5 | 1000
ACRWHFXEPCGAWCA (CiRWHF[HSer]EPCiiGAWCiii, scaffold TBMT) [BCY20388] | 2980
ACVGLEELGPCSDLCAK(Pent4ynoyl)-NH2 (linker 2-11-15 via TBMT (inferred), scaffold TBMT) [BCY13886] | 8360
ACRWHXSEPCGAWCA (CiRWH[HyP]SEPCiiGAWCiii, scaffold TBMT) [BCY20383] | 470
ACVGLXELGPCSDLCA (CiVGL[Nle]ELGPCiiSDLCiii, scaffold TBMT) [BCY16511] | 4020
ACRWHXSEPCGAWCA (CiRWH[Aze]SEPCiiGAWCiii, scaffold TBMT) [BCY20382] | 385
ACPPTVYCHPLDCAK (C-terminal Lys(PYA), scaffold TATA) [BCY15685] | 7370
ACRWHFSEPC[dA]AWCA-NH2 (linker 2-10-14 via TBMT″ (inferred), scaffold TBMT) [BCY20392] | 825
